How the values were obtained:
[1] = target: peroxide response regulator (PerR) from Group A streptococcus, recombinant 6xHis-tagged, wild type (Streptococcus pyogenes (Group A streptococcus) serotype M1 strain A20); experiment: SEC; Superdex 75 size exclusion chromatography of purified PerR against molecular weight markers; apparent molecular weight about 42 kDa for the wild type
PerR WT = target: T1, PerR WT (Streptococcus pyogenes (GAS) serotype …, UniProt Q9A1M6 1-155); experiment: EMSA; EMSA: 20 mM Tris pH 8.0, 50 mM KCl, 5% glycerol, 50 ug/ml BSA, 15 min at 25 C; 6% native PAGE in Tris-borate, ethidium bromide; settings: protein: recombinant; tags: C-terminal 6xHis (pET-21b NdeI/XhoI); chain copies: 2
T1 sequence: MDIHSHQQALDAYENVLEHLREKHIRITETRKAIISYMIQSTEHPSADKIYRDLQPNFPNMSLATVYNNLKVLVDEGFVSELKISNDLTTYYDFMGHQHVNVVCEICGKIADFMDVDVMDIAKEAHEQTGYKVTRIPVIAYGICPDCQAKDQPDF

Q: For “peroxide response regulator (PerR) from Group A streptococcus, recombinant 6xHis-tagged, wild type (natural protein)”, which stoichiometry N [1] is on record?
A: 2

B1: dpr segment (-185 to -135) (dsDNA)
DNA 1: ACACTTAATTAGAATCATTATCGTTTTATATCTATATTCTACAATGATTAA
DNA 2: TTAATCATTGTAGAATATAGATATAAAACGATAATGATTCTAATTAAGTGT
Q: Does B1 bind (PerR WT)?
A: binds

Reference: paper PMC3931707, “Distinct Structural Features of the Peroxide Response Regulator from Group A Streptococcus Drive DNA Binding”
